In patent US6787341B2, “Pharmacological targeting of bacterial DNA ligase for treatment and prevention of bacterial infections” (priority 2001, dated 2004):
Where a chain is given by its changes, count along the chain named. Numbers in names are those of the source.

B1: D32N: E. coli LigA with Asp32 mutated to Asn (protein, UniProt P15042 1-671, looked up, variant D32N)
DNA ligase: MESIEQQLTELRTTLRHHEYLYHVMDAPEIPNAEYDRLMRELRELETKHPELITPDSPTQRVGAAPLAAFSQIRHEVPMLSLDNVFDEESFLAFNKRVQDRLKNNEKVTWCCELKLDGLAVSILYENGVLVSAATRGDGTTGEDITSNVRTIRAIPLKLHGENIPARLEVRGEVFLPQAGFEKINEDARRTGGKVFANPRNAAAGSLRQLDPRITAKRPLTFFCYGVGVLEGGELPDTHLGRLLQFKKWGLPVSDRVTLCESAEEVLAFYHKVEEDRPTLGFDIDGVVIKVNSLAQQEQLGFVARAPRWAVAFKFPAQEQMTFVRDVEFQVGRTGAITPVARLEPVHVAGVLVSNATLHNADEIERLGLRIGDKVVIRRAGDVIPQVVNVVLSERPEDTREVVFPTHCPVCGSDVERVEGEAVARCTGGLICGAQRKESLKHFVSRRAMDVDGMGDKIIDQLVEKEYVHTPADLFKLTAGKLTGLERMGPKSAQNVVNALEKAKETTFARFLYALGIREVGEATAAGLAAYFGTLEALEAASIEELQKVPDVGIVVASHVHNFFAEESNRNVISELLAEGVHWPAPIVINAEEIDSPFAGKTVVLTGSLSQMSRDDAKARLVELGAKVAGSVSKKTDLVIAGEAAGSKLAKAQELGIEVIDEAEMLRLLGS
B2: D36N: E. coli LigA with Asp36 mutated to Asn (protein, UniProt P15042 1-671, looked up, variant D36N)
DNA ligase: B1 DNA ligase with N32D, D36N
B3: H23A: E. coli LigA with His23 replaced by alanine (protein, UniProt P15042 1-671, looked up, variant H23A)
DNA ligase: B1 DNA ligase with H23A, N32D
B4: D32A: E. coli LigA with Asp32 replaced by alanine (protein, UniProt P15042 1-671, looked up, variant D32A)
DNA ligase: B1 DNA ligase with N32A
B5: D32E: E. coli LigA with Asp32 mutated to Glu (protein, UniProt P15042 1-671, looked up, variant D32E)
DNA ligase: B1 DNA ligase with N32E
B6: D36E: E. coli LigA with Asp36 mutated to Glu (protein, UniProt P15042 1-671, looked up, variant D36E)
DNA ligase: B1 DNA ligase with N32D, D36E
B7: Y22A: E. coli LigA with Tyr22 replaced by alanine (protein, UniProt P15042 1-671, looked up, variant Y22A)
DNA ligase: B1 DNA ligase with Y22A, N32D
B8: E10A: E. coli LigA with Glu10 replaced by alanine in domain Ia (protein, UniProt P15042 1-671, looked up, variant E10A)
DNA ligase: B1 DNA ligase with E10A, N32D

system: E. coli LigA; type: biochemical; conditions: 1 μM [32P-AMP]NAD+, 15-120 s
Description: (§1) FIG. 12A: Aliquots (5 μg) of wild-type (WT) E. coli ligase, N-terminal deletion mutants NΔ38 and NΔ78, and the full-length ligase proteins containing the indicated alanine mutations in domain Ia were analyzed by SDS-PAGE. A Coomassie blue-stained gel is shown. FIG. 12B: Ligase adenylation reaction mixtures (20 μl) containing 50 mM Tris-HCl (pH 7.5), 5 mM DTT, 5 mM MgCl2, 1 μM [α-^32P]NAD^+ and 8 pmol of WT ligase, NΔ38, NΔ78, or the indicated alanine mutants were incubated for 5 min at 37° C. The reaction products were resolved by SDS-PAGE and visualized by autoradiography. FIG. 12C: Nick joining reaction mixtures (20 μl) containing 50 mM Tris-HCl (pH 7.5), 10 mM (NH4)2SO4, 5 mM DTT, 5 mM MgCl2, 20 μM NAD^+, 1 pmol of ^32P-labeled nicked DNA, and increasing amounts of WT ligase or the indicated alanine mutants were incubated for 10 min at 22° C. The extents of ligation are plotted as a function of input protein.
FIG. 15A: Aliquots (5 μg) of wild-type (WT) E. coli ligase and proteins containing the indicated mutations in domain Ia were analyzed by SDS-PAGE. The Coomassie blue-stained gel is shown. The positions and sizes (in kDa) of marker proteins are indicated on the left. FIG. 15B: Ligase adenylation reaction mixtures (20 μl) containing 50 mM Tris-HCl (pH 7.5), 5 mM DTT, 5 mM MgCl2, 1 μM [α-^32P]NAD^+ and 8 pmol of WT ligase or the indicated mutants were incubated for 5 min at 37° C. The reaction products were resolved by SDS-PAGE and visualized by autoradiography.
Reaction mixtures containing (per 20 μl) 50 mM Tris-HCl (pH 7.5), 5 mM DTT, 5 mM MgCl2, 1 μM [^32P-AMP]NAD^+ and 8 pmol of ligase were incubated at 22° C. Aliquots (20 μl) were withdrawn at 15, 30, 60 and 120 s and then quenched immediately with SDS. The products were analyzed by SDS-PAGE. Formation of the ligase-[^32P]AMP adduct is plotted as a function of time.
The first step in DNA ligation involves formation of a covalent enzyme-adenylate intermediate.

Q: For B1, which “rate of ligase adenylation (kinetic pattern)” value (“rate of ligase adenylation” below) is on record?
A: faster than D32E

Q: With B2 as the molecule, how does the “rate of ligase adenylation” value read?
A: faster than D36E

Q: B3 was tested. Which “rate of ligase adenylation” value did it give?
A: reacted slowly

same assay, conditions: qualitative

Q: For B1, which “ligase adenylation (ligase-AMP formation) with NAD+” value (from here on “ligase adenylation … with NAD+”) is on record?
A: partially active

Q: With B4 as the molecule, how does the “ligase adenylation … with NAD+” value read?
A: virtually inert

Q: With B5 as the molecule, how does the “ligase adenylation … with NAD+” value read?
A: more severely affected

Q: For B2, which “ligase adenylation … with NAD+” value is on record?
A: partially active

Q: With B6 as the molecule, how does the “ligase adenylation … with NAD+” value read?
A: more severely affected

Q: For B7, which “ligase adenylation … with NAD+” value is on record?
A: virtually inert

Q: Which “ligase adenylation … with NAD+” value does the source give for B3 here?
A: less active

Q: How did the “ligase adenylation … with NAD+” value turn out when B8 was run?
A: did not affect

system: E. coli LigA; type: biochemical; conditions: not given
Description: as §1
To further probe the role of domain Ia in NAD^+ recognition and nucleotidyl transfer, single alanine substitutions were introduced at six positions in the Ia domain of E. coli LigA. The six mutated Eco ligase residues—Glu10, Tyr22, His23, Asp32, Tyr35, and Asp36—correspond to the six residues that were subjected to alanine scanning mutagenesis in AmEPV ligase (FIG. 11). […] The conserved positions are denoted by shaded boxes in FIG. 11. The Eco ligase mutants E10A, Y22A, H23A, D32A, Y35A, and D36A were produced in E. coli and purified by Ni-agarose chromatography in parallel with wild-type ligase (FIG. 12A).
To evaluate the roles of charge, hydrogen bonding potential, and steric constraints in the functions of the domain Ia residues implicated in the step 1 reaction with NAD^+, the effects of conservative substitutions were tested. Tyr22 and Tyr35 were replaced by Phe and Ser, His23 was changed to Tyr, and Asp32 and Asp36 were mutated to Glu and Asn. The recombinant mutant ligases were purified from soluble bacterial extracts by Ni-agarose chromatography (FIG. 15A). The specific activity of each mutant was determined under steady-state conditions by protein titration and normalized to the specific activity of wild-type ligase.

Q: With B4 as the molecule, how does the “nick ligation (qualitative)” value read?
A: virtually inert

Q: B7 was tested. Which “nick ligation (qualitative)” value did it give?
A: virtually inert

same assay, conditions: specific activity by protein titration under steady-state conditions, normalized to wild-type ligase

Q: Which “Nick Joining Activity (% of WT)” value does the source give for B1 here?
A: 9 % of WT

Q: With B4 as the molecule, how does the “Nick Joining Activity (% of WT)” value read?
A: 0.2 % of WT

Q: For B5, which “Nick Joining Activity (% of WT)” value is on record?
A: 0.4 % of WT

Q: For B2, which “Nick Joining Activity (% of WT)” value is on record?
A: 12 % of WT

Q: Which “Nick Joining Activity (% of WT)” value does the source give for B6 here?
A: 4 % of WT

Q: Which “Nick Joining Activity (% of WT)” value does the source give for B7 here?
A: 0.1 % of WT

Q: For B3, which “Nick Joining Activity (% of WT)” value is on record?
A: 10 % of WT

Q: Which “Nick Joining Activity (% of WT)” value does the source give for B8 here?
A: 90 % of WT

system: E. coli LigA; type: biochemical; conditions: not given; remark: another data set of the same source
Description: Reaction mixtures containing 1 pmol of ^32P-labeled nicked DNA-adenylate (AppDNA) and either 8 pmol of wild-type (WT) E. coli ligase, deletion mutants NΔ38 and NΔ78, or the full-length ligase proteins containing the indicated alanine mutations in domain Ia were incubated for 60 min at 22° C. The reaction products were resolved by denaturing PAGE. An autoradiograph of the gel is shown. Control reaction mixtures containing either ^32P-labeled nicked DNA-adenylate (AppDNA) or nicked DNA (pDNA) substrates and no ligase are shown in lanes -. The positions of the pDNA, AppDNA, and ligated 36-mer DNA strands are indicated by arrows on the right. The position of the radiolabeled phosphate of AppDNA is denoted by •. The nicked DNA-adenylate substrate used in the ligation reactions is illustrated at the bottom.
The nicked DNA-adenylate substrate is illustrated in FIG. 13. The DNA-adenylate ligation reaction mixtures (20 μl) contained 50 mM Tris-HCl (pH 7.5), 5 mM DTT, 5 mM MgCl2, 200 fmol of nicked DNA-adenylate substrate, 2 pmol of wild-type or mutant EcoLigA proteins as specified were incubated at 22° C. The sealing reactions were initiated by adding ligase. Aliquots (20 μl) were withdrawn at the times specified and quenched immediately with EDTA and formamide. The products were resolved by denaturing PAGE and the extents of ligation were determined by scanning the gel with a phosphorimager. The extent of strand joining is plotted as a function of reaction time.
The third step of the ligation pathway entails attack of the 3′ OH of the nick on the 5′ PO4 of the DNA-adenylate to form a phosphodiester and release AMP. Step 3 of the ligation reaction was assayed using a pre-adenylated nicked DNA substrate labeled with ^32P on the 5′ PO4 of the DNA-adenylate strand (FIG. 13).

Q: With B7 as the molecule, how does the “effect on rate or extent (yield) of phosphodiester formation at a pre-adenylated nick” value read?
A: no effect

same assay, conditions: qualitative, magnesium, no added NAD+

Q: Which “phosphodiester formation at pre-adenylated nick” value does the source give for B4 here?
A: catalytically active

Q: Which “phosphodiester formation at pre-adenylated nick” value does the source give for B7 here?
A: catalytically active

Q: With B3 as the molecule, how does the “phosphodiester formation at pre-adenylated nick” value read?
A: catalytically active

Q: B8 was tested. Which “phosphodiester formation at pre-adenylated nick” value did it give?
A: catalytically active
